Bridge positions count the residues as written; N and C are the ends. Square brackets hold non-standard residues; d marks the D form. Ends that are not written are not given here. * marks the point of attachment. Palmitoyl = CCCCCCCCCCCCCCCC(=O)*; Myristoyl = CCCCCCCCCCCCCC(=O)*; Nle = CCCC[C@H](N)C(=O)O; Octanoyl = CCCCCCCC(=O)*
How the values were obtained:
[1] = molecular target: CARTp binding site in PC12 cells (prospective CARTp receptor) (rat); test: displacement of 125I-CART(61-102) from PC12 cells, Cheng-Prusoff
[2] = molecular target: CARTp binding site in PC12 cells (prospective CARTp receptor) (rat); test: displacement of 125I-CART(61-102) from PC12 cells, relative to CART(61-102)
[3] = molecular target: CARTp binding site in PC12 cells (prospective CARTp receptor) (rat); test: displacement of 125I-CART(61-102) from PC12 cells; range told of the group, this end tied by Table 2
[4] = Stability in rat plasma measured by ELISA; type: in vitro ADME; conditions: 100 ng.ml^-1, 37 °C, 96 hours, EDTA plasma, compared to CART 2S-S
Experimental: Blank rat pooled EDTA plasma was conditioned in an incubator at 37 °C. Plasma was preheated to reach required temperature and then it was spiked with a solution of CART 2S-S and palm-CART analogues (dissolved in aqueous 0.5% formic acid) to a final concentration 100 ng.ml^-1. Duplicates were taken for ELISA analysis, sampling volume was 50 µL. Samples were immediately transferred to -20 °C.
ELISA kit for CARTp (MyBioSource, San Diego, CA, USA) was used in accordance with manufacturer's directions. In addition, external calibration using palm-CART was used. The rat plasma was applied for the calibration to comprise specific influence of different matrices on the immunoanalysis output.

[5] = molecular target: CARTp binding site in PC12 cells (prospective CARTp receptor) (rat); test: radioligand binding on PC12 cells, 10^-10 M tracer
[6] = molecular target: CARTp binding site in PC12 cells (prospective CARTp receptor) (rat); test: Kd of the radioligand on PC12 cells, used in the Cheng-Prusoff equation; how it was measured is not stated

Molecule: Palm-CART [74-94, 86-101] (peptide)
- Ki [1]: 1090 nM
- % binding CART(61-102) [2]: 0.85%
- Ki [3]: 1000 nM

Molecule: Palmitoyl-KYGQVP[Nle]ADAGEQCAVRKGARIGKLADCPRGTSCNSFLLKCL (disulfide 14-34, 28-41) [Palm-CART]
- stability in rat plasma [4]: higher stability

B1: Palm-CART (peptide)
peptide: Palmitoyl-KYGQVP[Nle]ADAGEQCAVRKGARIGKLADCPRGTSCNSFLLKCL
modifications: disulfide 14-34, 28-41
- Ki [1]: 1.43 nM
- % binding CART(61-102) [2]: 652%
- Ki [3]: 1 nM

B2: Myr-CART (peptide)
peptide: Myristoyl-KYGQVP[Nle]ADAGEQCAVRKGARIGKLADCPRGTSCNSFLLKCL
modifications: disulfide 14-34, 28-41
- Ki [1]: 12.1 nM
- % binding CART(61-102) [2]: 78%

B3: CART 2S-S (peptide)
peptide: KYGQVP[Nle]ADAGEQCAVRKGARIGKLADCPRGTSCNSFLLKCL
modifications: disulfide 14-34, 28-41
- Ki [1]: 261 nM
- % binding CART(61-102) [2]: 3.5%

B4: Oct-CART (peptide)
peptide: Octanoyl-KYGQVP[Nle]ADAGEQCAVRKGARIGKLADCPRGTSCNSFLLKCL
modifications: disulfide 14-34, 28-41
- Ki [1]: 76.1 nM
- % binding CART(61-102) [2]: 12%

B5: CART(61-102) (peptide)
peptide: KYGQVPMCDAGEQCAVRKGARIGKLCDCPRGTSCNSFLLKCL
modifications: disulfide 14-34, 8-26, 28-41
- Ki [1]: 9.33 nM
- % binding CART(61-102) [2]: 100%

B6: 125I-CART(61-102) (peptide)
peptide: B5 peptide
modifications: disulfide 14-34, 8-26, 28-41; ends not checked; also: monoiodinated with 125I, residue not given here
- total binding, % of the radioactivity added [5]: 3 to 8%
- Kd [6]: 1.49 nM
